Measured values: the Human Domainome abundance scans (Beltran et al. 2025)
± gives the uncertainty stated by the source.

B1: Zinc finger homeobox protein 4, residues 2562 to 2617; numbered along this chain, Q86UP3 (parent)
chain: RLRTTITPEQLEILYEKYLLDSNPTRKMLDHIAREVGLKKRVVQVWFQNTRARERK
B2: Nucleolar transcription factor 1, residues 408 to 469; numbered along this chain, P17480 (parent)
chain: KRPVSAMFIFSEEKRRQLQEERPELSESELTRLLARMWNDLSEKKKAKYKAREAALKAQSER

Variants of: B1
Assay: abundance fitness (aPCA) (normalised: wild type 0, dead -1); higher = more abundant; growth selection in yeast, the domain comes from the species named
Details: Homo sapiens

Abundance fitness: each site, then its substitutions
L11: W -0.203 ± 0.07; K -0.05 ± 0.09; N -0.189 ± 0.11; G -0.017 ± 0.066; D 0.108 ± 0.064; I -0.037 ± 0.16; Y -0.159 ± 0.15; Q 0.017 ± 0.094; V 0.123 ± 0.061; M -0.062 ± 0.089; C -0.85 ± 0.14; R -0.043 ± 0.052; P -1.05 ± 0.21; A -0.059 ± 0.053; T 0.215 ± 0.12; S -0.082 ± 0.074; H -0.01 ± 0.11; E 0.092 ± 0.12
L14: T -1 ± 0.18; M -0.225 ± 0.088; V -0.945 ± 0.083; Y -0.867 ± 0.17; N 0.341 ± 0.39; W -1.16 ± 0.17; H -0.846 ± 0.18; S -0.998 ± 0.17; E -0.924 ± 0.083; G -0.773 ± 0.082; Q -0.959 ± 0.17; K -1.05 ± 0.17; R -0.849 ± 0.096; P -0.658 ± 0.1; F -0.718 ± 0.14; A -0.765 ± 0.093; C -1.16 ± 0.25; D -0.754 ± 0.26
E9: C -0.417 ± 0.063; D 0.038 ± 0.085; Y -0.297 ± 0.055; M -0.171 ± 0.059; F -0.399 ± 0.079; S -0.173 ± 0.057; R -0.005 ± 0.054; H -0.257 ± 0.098; V -0.157 ± 0.056; T -0.105 ± 0.068; N -0.141 ± 0.054; A -0.069 ± 0.051; Q -0.152 ± 0.08; G -0.159 ± 0.051; P -0.178 ± 0.057; L -0.202 ± 0.057
I13: D -0.535 ± 0.23; Q 0.167 ± 0.095; E -0.06 ± 0.07; A 0.003 ± 0.08; K 0.173 ± 0.08; R -0.003 ± 0.052; C -0.389 ± 0.14; V -0.072 ± 0.064; M -0.088 ± 0.12; L -0.097 ± 0.083; P -0.68 ± 0.06; Y -0.017 ± 0.1; G -0.235 ± 0.081; H -0.588 ± 0.31; N -0.161 ± 0.24; F -0.084 ± 0.14; S -0.041 ± 0.091; T -0.139 ± 0.065; W -0.246 ± 0.067
Q10: Y -0.856 ± 0.32; P -0.869 ± 0.15; K -0.524 ± 0.11; G -0.695 ± 0.089; I -0.086 ± 0.22; N -0.651 ± 0.35; D 0.18 ± 0.12; C -0.847 ± 0.2; E -0.641 ± 0.13; M -0.326 ± 0.059; S -0.603 ± 0.12; T -0.587 ± 0.15; H -0.466 ± 0.071; F -0.941 ± 0.24; W -0.695 ± 0.068; V -0.283 ± 0.058
R3: W -0.156 ± 0.056; S 0.301 ± 0.073; L -0.008 ± 0.072; P -0.004 ± 0.11; A 0.119 ± 0.053; F -0.02 ± 0.14; G 0.194 ± 0.062; D 0.68 ± 0.12; I 0.319 ± 0.12; N 0.829 ± 0.18; Q 0.424 ± 0.11; T 0.359 ± 0.089; K 0.288 ± 0.11; M 0.182 ± 0.072; V 0.132 ± 0.067; E 0.207 ± 0.1
R1: N 0.002 ± 0.29; S 0.311 ± 0.17; A 0.743 ± 0.28; T -0.054 ± 0.27; C 0.24 ± 0.25
T4: G -0.052 ± 0.053; N -0.488 ± 0.18; M -0.022 ± 0.085; C -0.209 ± 0.09; V -0.179 ± 0.07; K -0.408 ± 0.12; S -0.057 ± 0.07; D 0.304 ± 0.089; H -0.145 ± 0.079; F -0.062 ± 0.13; L -0.165 ± 0.073; P 0.037 ± 0.11; Y -0.109 ± 0.15; R -0.63 ± 0.075; W -0.305 ± 0.057; Q -0.096 ± 0.12
L2: N 0.309 ± 0.09; E 0.429 ± 0.079; A -0.059 ± 0.065; I -0.115 ± 0.14; D 0.31 ± 0.13; W -0.421 ± 0.12; S 0.161 ± 0.068; F 0.066 ± 0.063; M 0.024 ± 0.11; C -0.296 ± 0.083; G -0.132 ± 0.079; R -0.176 ± 0.076; H -0.357 ± 0.22; T 0.105 ± 0.12; Q -0.603 ± 0.2; V -0.023 ± 0.061; K 0.24 ± 0.1
Y15: A -0.105 ± 0.068
P8: E 0.197 ± 0.12; Y -0.643 ± 0.38; F -0.038 ± 0.17; Q -0.232 ± 0.19; L 0.167 ± 0.068; C -0.54 ± 0.25; D -0.107 ± 0.075; K -0.272 ± 0.085; V 0.168 ± 0.099; A 0.076 ± 0.065; M -0.329 ± 0.2; W -0.177 ± 0.11; I 0.043 ± 0.22; T -0.452 ± 0.13; R -0.254 ± 0.091; H -0.422 ± 0.42; S -0.413 ± 0.15; G -0.504 ± 0.11
T7: Y -0.436 ± 0.09; G -0.155 ± 0.066; N -0.238 ± 0.42; L -0.206 ± 0.12; R -0.449 ± 0.07; V -0.196 ± 0.11; A 0.208 ± 0.12; W -0.708 ± 0.24; S -0.111 ± 0.13; C -0.258 ± 0.3; P -0.165 ± 0.2; M -0.321 ± 0.14; I -0.756 ± 0.43; K -0.55 ± 0.26; Q -0.295 ± 0.082; E 0.259 ± 0.14
T5: E 0.141 ± 0.15; I 0.057 ± 0.17; S -0.068 ± 0.053; V 0.025 ± 0.084; N 0.265 ± 0.19; D 0.068 ± 0.23; Y -0.252 ± 0.23; A -0.398 ± 0.22; G -0.132 ± 0.097; K -0.332 ± 0.31; Q 0.085 ± 0.13; P -0.032 ± 0.25; R -0.34 ± 0.076; W -0.397 ± 0.16; F -0.312 ± 0.13; L -0.298 ± 0.15; M -0.241 ± 0.29
E12: S 0.048 ± 0.053; C -0.224 ± 0.11; W -0.496 ± 0.077; T 0.164 ± 0.1; L -0.002 ± 0.07; D -0.05 ± 0.097; F 0.083 ± 0.12; M -0.075 ± 0.087; K 0.238 ± 0.12; Q 0.033 ± 0.085; Y -0.435 ± 0.18; G -0.039 ± 0.058; P -0.659 ± 0.077; N -0.075 ± 0.25; A 0.01 ± 0.059; H -0.307 ± 0.31; V -0.062 ± 0.062; I 0.294 ± 0.13; R 0.007 ± 0.047
I6: A -0.266 ± 0.099; Y 0.06 ± 0.089; Q -0.761 ± 0.14; N -0.708 ± 0.32; T -0.584 ± 0.19; P -0.056 ± 0.074; V -0.248 ± 0.081; S -0.652 ± 0.06; W -0.465 ± 0.072; D -0.759 ± 0.13; H -0.202 ± 0.29; C -0.565 ± 0.1; L -0.196 ± 0.07; E -0.477 ± 0.14; G -0.264 ± 0.049; M 0.144 ± 0.14; K -0.852 ± 0.37; R -0.983 ± 0.076

Variants of: B2
Assay: as above
Details: Homo sapiens

Abundance fitness, by site and new letter:
K57: I -0.045 ± 0.069; E 0.017 ± 0.074; Y -0.162 ± 0.12; W -0.146 ± 0.059; G -0.073 ± 0.052; F -0.058 ± 0.081; Q -0.16 ± 0.1; V -0.085 ± 0.042; S -0.005 ± 0.05; D -0.096 ± 0.058; C -0.048 ± 0.11; R -0.079 ± 0.049; L -0.07 ± 0.044; T -0.059 ± 0.054; A -0.069 ± 0.049; H -0.044 ± 0.098; N -0.068 ± 0.11; P -0.087 ± 0.061
A58: K -0.042 ± 0.05; Y -0.173 ± 0.13; P -0.084 ± 0.061; V -0.017 ± 0.053; Q -0.002 ± 0.065; G 0.001 ± 0.056; E -0.069 ± 0.068; R -0.041 ± 0.045; H 0.029 ± 0.098; S -0.051 ± 0.048; I 0.022 ± 0.12; W -0.097 ± 0.067; C -0.067 ± 0.072; L -0.025 ± 0.039; N 0.013 ± 0.059; F -0.03 ± 0.065; D 0.006 ± 0.1
L56: V -0.036 ± 0.051; R -0.111 ± 0.05; S 0.013 ± 0.083; Q -0.089 ± 0.084; Y -0.085 ± 0.065; T 0.01 ± 0.089
S60: A -0.028 ± 0.046; H -0.317 ± 0.18; I -0.057 ± 0.11; Q -0.036 ± 0.065; G 0.027 ± 0.04; L -0.062 ± 0.05; W -0.049 ± 0.077; T -0.037 ± 0.066; E 0 ± 0.05; N -0.06 ± 0.11; F 0.031 ± 0.069; C -0.028 ± 0.077; P -0.006 ± 0.056; V -0.038 ± 0.059; M -0.113 ± 0.049; R -0.059 ± 0.037
E61: F -0.129 ± 0.12; C -0.073 ± 0.13; D -0.069 ± 0.11; Y -0.191 ± 0.2; K -0.093 ± 0.097; W -0.135 ± 0.071; G -0.071 ± 0.046; M 0.023 ± 0.11; S -0.045 ± 0.052; V -0.069 ± 0.045; A -0.059 ± 0.064; T 0.003 ± 0.077; R -0.236 ± 0.13
R62: Q 0.004 ± 0.1; M -0.019 ± 0.1; F -0.317 ± 0.34; E 0.027 ± 0.19; A 0.079 ± 0.18; S -0.019 ± 0.066; T -0.051 ± 0.09; P -0.232 ± 0.081; N -0.224 ± 0.12; W 0.014 ± 0.11; L -0.094 ± 0.069; G 0.055 ± 0.033; Y 0.016 ± 0.12; D 0.073 ± 0.15; K 0.042 ± 0.1; I -0.055 ± 0.16
Q59: Y -0.262 ± 0.1; F -0.193 ± 0.1; P -0.056 ± 0.075; A -0.062 ± 0.052; K 0.03 ± 0.071; I -0.008 ± 0.065; V -0.034 ± 0.051; N 0.028 ± 0.15; L -0.054 ± 0.038; M 0.011 ± 0.054; E 0.009 ± 0.064; W -0.194 ± 0.065; D 0 ± 0.091; G -0.063 ± 0.054; H -0.117 ± 0.14; C -0.076 ± 0.098; T -0.029 ± 0.05; R -0.027 ± 0.038
